B1: Complement factor H (Homo sapiens), P08603-1 (parent)
chain: MRLLAKIICLMLWAICVAEDCNELPPRRNTEILTGSWSDQTYPEGTQAIYKCRPGYRSLGNVIMVCRKGEWVALNPLRKCQKRPCGHPGDTPFGTFTLTGGNVFEYGVKAVYTCNEGYQLLGEINYRECDTDGWTNDIPICEVVKCLPVTAPENGKIVSSAMEPDREYHFGQAVRFVCNSGYKIEGDEEMHCSDDGFWSKEKPKCVEISCKSPDVINGSPISQKIIYKENERFQYKCNMGYEYSERGDAVCTESGWRPLPSCEEKSCDNPYIPNGDYSPLRIKHRTGDEITYQCRNGFYPATRGNTAKCTSTGWIPAPRCTLKPCDYPDIKHGGLYHENMRRPYFPVAVGKYYSYYCDEHFETPSGSYWDHIHCTQDGWSPAVPCLRKCYFPYLENGYNQNYGRKFVQGKSIDVACHPGYALPKAQTTVTCMENGWSPTPRCIRVKTCSKSSIDIENGFISESQYTYALKEKAKYQCKLGYVTADGETSGSITCGKDGWSAQPTCIKSCDIPVFMNARTKNDFTWFKLNDTLDYECHDGYESNTGSTTGSIVCGYNGWSDLPICYERECELPKIDVHLVPDRKKDQYKVGEVLKFSCKPGFTIVGPNSVQCYHFGLSPDLPICKEQVQSCGPPPELLNGNVKEKTKEEYGHSEVVEYYCNPRFLMKGPNKIQCVDGEWTTLPVCIVEESTCGDIPELEHGWAQLSSPPYYYGDSVEFNCSESFTMIGHRSITCIHGVWTQLPQCVAIDKLKKCKSSNLIILEEHLKNKKEFDHNSNIRYRCRGKEGWIHTVCINGRWDPEVNCSMAQIQLCPPPPQIPNSHNMTTTLNYRDGEKVSVLCQENYLIQEGEEITCKDGRWQSIPLCVEKIPCSQPPQIEHGTINSSRSSQESYAHGTKLSYTCEGGFRISEENETTCYMGKWSSPPQCEGLPCKSPPEISHGVVAHMSDSYQYGEEVTYKCFEGFGIDGPAIAKCLGEKWSHPPSCIKTDCLSLPSFENAIPMGEKKDVYKAGEQVTYTCATYYKMDGASNVTCINSRWTGRPTCRDTSCVNPPTVQNAYIVSRQMSKYPSGERVRYQCRSPYEMFGDEEVMCLNGNWTEPPQCKDSTGKCGPPPPIDNGDITSFPLSVYAPASSVEYQCQNLYQLEGNKRITCRNGQWSEPPKCLHPCVISREIMENYNIALRWTAKQKLYSRTGESVEFVCKRGYRLSSRSHTLRTTCWDGKLEYPTCAKR
partner: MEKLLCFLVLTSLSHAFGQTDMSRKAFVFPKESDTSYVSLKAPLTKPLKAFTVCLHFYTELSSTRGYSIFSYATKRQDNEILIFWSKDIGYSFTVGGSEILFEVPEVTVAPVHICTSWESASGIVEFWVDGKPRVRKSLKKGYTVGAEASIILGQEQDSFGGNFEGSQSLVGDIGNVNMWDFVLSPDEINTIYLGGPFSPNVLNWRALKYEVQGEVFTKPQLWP
B2: Complement factor H (Homo sapiens), P08603-2 (parent)
chain: MRLLAKIICLMLWAICVAEDCNELPPRRNTEILTGSWSDQTYPEGTQAIYKCRPGYRSLGNVIMVCRKGEWVALNPLRKCQKRPCGHPGDTPFGTFTLTGGNVFEYGVKAVYTCNEGYQLLGEINYRECDTDGWTNDIPICEVVKCLPVTAPENGKIVSSAMEPDREYHFGQAVRFVCNSGYKIEGDEEMHCSDDGFWSKEKPKCVEISCKSPDVINGSPISQKIIYKENERFQYKCNMGYEYSERGDAVCTESGWRPLPSCEEKSCDNPYIPNGDYSPLRIKHRTGDEITYQCRNGFYPATRGNTAKCTSTGWIPAPRCTLKPCDYPDIKHGGLYHENMRRPYFPVAVGKYYSYYCDEHFETPSGSYWDHIHCTQDGWSPAVPCLRKCYFPYLENGYNQNYGRKFVQGKSIDVACHPGYALPKAQTTVTCMENGWSPTPRCIRVSFTL
partner: B1 partner

The variants in one test derive from B1. The following applies: with crp_human CRP.
Y402H: the “effect of a mutation on the interaction” value was “decreasing interaction strength”.

Another test covers variants of B2. To be noted: with crp_human CRP.
With Y402H, the “effect of a mutation on the interaction” value is recorded as “decreasing interaction strength”.

Values taken from IntAct's records for PubMed 17399790.
